Our source for the Kd values is the supplement of paper PMC6379048.

What all share (test): Kd (EC50 corrected by depletion factor)
One data set concerns the target T1, CPSF3 (UniProt Q9UKF6).
T1 sequence: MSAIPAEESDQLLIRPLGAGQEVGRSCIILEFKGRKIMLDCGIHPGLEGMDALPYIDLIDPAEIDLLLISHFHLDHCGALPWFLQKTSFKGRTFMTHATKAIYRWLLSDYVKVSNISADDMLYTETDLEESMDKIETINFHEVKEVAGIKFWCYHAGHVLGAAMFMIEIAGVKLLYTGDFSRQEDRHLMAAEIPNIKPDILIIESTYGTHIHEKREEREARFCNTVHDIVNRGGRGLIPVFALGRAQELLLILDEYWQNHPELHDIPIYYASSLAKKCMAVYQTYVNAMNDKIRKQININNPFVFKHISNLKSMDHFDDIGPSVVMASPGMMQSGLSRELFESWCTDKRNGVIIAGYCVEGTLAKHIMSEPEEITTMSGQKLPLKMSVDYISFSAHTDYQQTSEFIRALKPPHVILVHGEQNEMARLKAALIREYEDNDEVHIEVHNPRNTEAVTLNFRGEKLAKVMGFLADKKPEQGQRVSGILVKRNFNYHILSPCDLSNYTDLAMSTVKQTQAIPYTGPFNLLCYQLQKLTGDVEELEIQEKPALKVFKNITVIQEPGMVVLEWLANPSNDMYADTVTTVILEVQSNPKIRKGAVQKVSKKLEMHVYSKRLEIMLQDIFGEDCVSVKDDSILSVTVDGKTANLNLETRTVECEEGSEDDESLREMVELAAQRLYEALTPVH
In a few lines: (§1)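 HEK293-FT lysate (2.5 mg protein/well) was treated with free RNA oligos (0 nM to 30 μM) for 1 h at 4°C, then with the same oligos on NHS-Sepharose beads for 30 min at 4°C. Bound proteins were quantified by label-free LC-MS/MS relative to the control. EC50 came from a four-parameter log-logistic fit, and Kd is EC50 times a protein-dependent depletion factor.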

For the next data set, the target named is T2, FUBP3 (UniProt Q96I24).
T2 sequence: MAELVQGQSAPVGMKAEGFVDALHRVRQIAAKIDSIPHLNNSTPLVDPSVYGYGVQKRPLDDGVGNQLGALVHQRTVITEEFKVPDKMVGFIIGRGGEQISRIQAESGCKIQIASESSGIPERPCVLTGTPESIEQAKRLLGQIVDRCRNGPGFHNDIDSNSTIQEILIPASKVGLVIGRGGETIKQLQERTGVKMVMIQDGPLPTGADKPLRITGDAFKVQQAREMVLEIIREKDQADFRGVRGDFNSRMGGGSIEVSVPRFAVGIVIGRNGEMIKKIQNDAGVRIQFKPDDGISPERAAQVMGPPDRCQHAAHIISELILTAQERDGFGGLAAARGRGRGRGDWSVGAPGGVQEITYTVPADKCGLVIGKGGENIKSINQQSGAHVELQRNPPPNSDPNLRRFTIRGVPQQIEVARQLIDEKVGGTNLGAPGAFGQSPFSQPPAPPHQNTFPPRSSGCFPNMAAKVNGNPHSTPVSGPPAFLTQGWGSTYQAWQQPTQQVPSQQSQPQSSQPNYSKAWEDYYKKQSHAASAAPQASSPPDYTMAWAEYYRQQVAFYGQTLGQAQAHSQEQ
In a few lines:
as §1

Another data set addresses LSM3 (UniProt P62310). The essentials:
as §1

The target of another data set is MSI1 (UniProt O43347). In a few lines:
as §1

For the next data set, the target named is SLIRP (UniProt Q9GZT3). The essentials: as §1
In the next data set the target is T3, TFIP11 (UniProt Q9UBB9).
T3 sequence: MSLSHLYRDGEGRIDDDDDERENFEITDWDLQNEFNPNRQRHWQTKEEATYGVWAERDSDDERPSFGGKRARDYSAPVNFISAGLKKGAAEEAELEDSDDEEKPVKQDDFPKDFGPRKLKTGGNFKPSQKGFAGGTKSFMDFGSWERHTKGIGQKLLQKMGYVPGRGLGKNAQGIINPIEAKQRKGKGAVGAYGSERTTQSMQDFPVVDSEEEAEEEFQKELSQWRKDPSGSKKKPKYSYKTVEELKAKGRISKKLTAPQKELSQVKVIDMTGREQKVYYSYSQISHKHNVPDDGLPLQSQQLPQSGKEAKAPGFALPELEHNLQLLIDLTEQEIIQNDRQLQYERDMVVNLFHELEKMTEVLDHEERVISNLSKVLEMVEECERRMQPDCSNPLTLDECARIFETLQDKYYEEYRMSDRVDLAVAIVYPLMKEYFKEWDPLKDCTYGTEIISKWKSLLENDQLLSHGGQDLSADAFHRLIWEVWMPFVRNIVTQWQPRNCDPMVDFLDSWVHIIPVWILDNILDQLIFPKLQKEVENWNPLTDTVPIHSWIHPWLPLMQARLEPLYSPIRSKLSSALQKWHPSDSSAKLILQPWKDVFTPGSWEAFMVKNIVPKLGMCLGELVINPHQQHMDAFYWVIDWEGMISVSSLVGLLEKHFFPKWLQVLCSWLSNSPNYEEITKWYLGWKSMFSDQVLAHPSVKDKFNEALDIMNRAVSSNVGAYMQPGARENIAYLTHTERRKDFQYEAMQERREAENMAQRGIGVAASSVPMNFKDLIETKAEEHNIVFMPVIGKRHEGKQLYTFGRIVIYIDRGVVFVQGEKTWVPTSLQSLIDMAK
The essentials:
as §1

Sequence of LSM3 (P62310 whole entry): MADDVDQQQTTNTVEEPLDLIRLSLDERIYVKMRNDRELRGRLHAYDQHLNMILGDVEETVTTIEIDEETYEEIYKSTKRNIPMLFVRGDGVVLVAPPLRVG
Sequence of MSI1 (O43347 whole entry): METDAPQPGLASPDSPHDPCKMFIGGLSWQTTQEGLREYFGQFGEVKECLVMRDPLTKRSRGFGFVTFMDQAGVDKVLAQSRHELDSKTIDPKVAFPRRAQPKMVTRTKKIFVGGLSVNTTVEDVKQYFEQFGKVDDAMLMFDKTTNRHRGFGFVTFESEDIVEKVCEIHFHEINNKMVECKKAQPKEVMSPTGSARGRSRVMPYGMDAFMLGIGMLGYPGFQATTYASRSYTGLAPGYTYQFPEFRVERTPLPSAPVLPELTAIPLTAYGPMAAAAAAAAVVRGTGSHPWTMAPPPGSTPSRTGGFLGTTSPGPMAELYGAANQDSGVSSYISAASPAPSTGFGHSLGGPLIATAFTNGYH

On to AAUAAA, for which the dissociation constant (Kd) (as a rule, the constant that tells how readily two partners part at equilibrium) with CPSF3 came to 5.97 nM; with FUBP3 it was 245 nM; with LSM3, 45 nM; in the data set with MSI1, 3110 nM; in the data set with SLIRP, 393 nM; with TFIP11, 569 nM.

In the data set with SLIRP, CUGUCCU gave a dissociation constant Kd of 904 nM.

In the case of UAUUUAU, the equilibrium dissociation constant (Kd) with CPSF3 came out at 270 nM; with FUBP3 it was 241 nM; with LSM3, 307 nM; with MSI1, 373 nM; in the data set with TFIP11 it was 1230 nM.
